Experimental data taken from PMC8294330.

What was measured:
[1] = biological target: PNPase S1x4;Hfq R681A;Q682A;R684A;R686A (Escherichia coli;Escherichia coli) (UniProt P05055+P0A6X3); assay: EMSA; details: EMSA: 0.4 uM RNA, PNPase trimer 1:1 and 3:1 over RNA, 20 mM Tris pH 7.5, 100 mM NaCl, 1 mM MgCl2, 1 mM DTT, 30 C 20 min; native PAA gel with 10% glycerol …
[2] = biological target: PNPase WT;Hfq (Escherichia coli;Escherichia coli) (UniProt P05055+P0A6X3); assay: cryo-EM; details: EMSA: 0.4 uM RNA, PNPase trimer 1:1 and 3:1 over RNA, 20 mM Tris pH 7.5, 100 mM NaCl, 1 mM MgCl2, 1 mM DTT, 30 C 20 min; native PAA gel with 10% glycerol …

GCGAUCAGGAAGACCCUCGCGGAGAACCUGAAAGCACGACAUUGCUCACAUUGCUUCCAGUAUUACUUAGCCAGCCGGGUGCUGGCUUUUUUUUU [RyhB]
binding [1]: no binding | binding [2]: binds
